Reference: patent publication US20150344570A1 (published 2015)

T1: FcγRIIa R (human, UniProt P12318 34-217)
T1 construct: extracellular domain; Soluble His-tagged extracellular domain expressed in FreeStyle293 cells; analyte in Biacore; also called FcgRIIa R; FcgRIIaR; not shown: His tag attached to the C terminus
T1 sequence (looked up): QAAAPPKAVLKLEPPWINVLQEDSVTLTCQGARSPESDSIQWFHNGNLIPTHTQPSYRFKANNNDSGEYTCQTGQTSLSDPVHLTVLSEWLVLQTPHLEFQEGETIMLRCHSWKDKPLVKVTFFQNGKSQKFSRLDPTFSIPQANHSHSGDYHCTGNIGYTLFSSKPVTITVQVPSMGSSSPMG

T2: FcγRIIb (human, UniProt P31994 43-217)
T2 construct: extracellular domain; Soluble His-tagged extracellular domain expressed in FreeStyle293 cells; analyte in Biacore; also called FcgRIIb; 2b; not shown: His tag attached to the C terminus
T2 sequence (looked up): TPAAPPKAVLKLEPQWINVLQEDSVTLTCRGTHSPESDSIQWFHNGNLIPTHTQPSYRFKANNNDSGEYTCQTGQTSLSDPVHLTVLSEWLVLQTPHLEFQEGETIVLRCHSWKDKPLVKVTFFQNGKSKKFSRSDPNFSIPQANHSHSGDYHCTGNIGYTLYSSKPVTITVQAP

T3: FcγRIIa R (extracellular domain, His tag at the C terminus) (human, UniProt P12318 34-217)
T3 construct: extracellular domain; Soluble analyte in Biacore; also called FcgRIIa R type; 2aR
T3 sequence (looked up): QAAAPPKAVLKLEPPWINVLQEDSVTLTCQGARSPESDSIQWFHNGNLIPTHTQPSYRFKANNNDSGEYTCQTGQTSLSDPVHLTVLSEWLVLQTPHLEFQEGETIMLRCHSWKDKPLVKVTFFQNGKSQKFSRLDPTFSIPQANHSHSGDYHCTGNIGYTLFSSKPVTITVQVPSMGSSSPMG


Key:
FcγRIIa R [1] = molecular target: T1, FcγRIIa R; assay: SPR (Biacore), antibody captured via antigen peptide, FcγR as analyte
Protocol: (§1) The heterodimerized antibodies He Abs in which one of the H chains was introduced with an alteration were assayed for their binding activities to each activating FcγR and inhibitory FcγR according to the method described in Example 4. […] The activating FcγRs in FIGS. 26, 27, 28, and 29 are FcγRIa, FcγRIIa (R), FcγRIIa (H), and FcγRIIIa, respectively.
(§2) Analysis of interaction between objective antibody and the FcγR was carried out using Biacore T100 (GE Healthcare). HBS-EP+ (GE Healthcare) was used as the running buffer, and the measurement temperature was set to 25° C. Chips produced by immobilizing the antigen peptide by the amine coupling method to a Series S Sencor Chip CM5 (GE Healthcare), or alternatively, chips produced by allowing preliminarily biotinylated antigen peptides to interact with and immobilize onto a Series S Sensor Chip SA (certified) (GE Healthcare) were used. Antibodies of interest were captured onto an antigen peptide-immobilized chip, and allowed to interact to each FcγR diluted with running buffer. To regenerate and repeatedly use the chip, the antibodies captured on the chip were washed off by reacting 10 mM glycine-HCl, pH 1.5.

FcγRIIb = molecular target: T2, FcγRIIb; assay: as above
Protocol: as §1, §2

FcγRIIa R [2] = molecular target: T1, FcγRIIa R; assay: ratio of He/Con_2aR to He/Con_2b (binding to FcγRIIb as reference); SPR
[3] = molecular target: T3, FcγRIIa R (extracellular domain, His …); assay: SPR (Biacore), relative binding, control GpH7-A5/GpH7-B3/GpL16-k0 = 100

Binder	He/Con_2aR (IIaR binding relative to GpH7-A5/GpH7-B3/GpL16-k0) (FcγRIIa R [1])	He/Con_2b (IIb binding relative to GpH7-A5/GpH7-B3/GpL16-k0) (FcγRIIb)	He_2aR/2b (IIaR/IIb) (FcγRIIa R [2])	He/Con_2aR [3]
GpH7-A5/GpH7-B3 variant A330_08L/GpL16-k0 (antibody, human IgG1, kappa, Heterodimerized anti-glypican-3 IgG1 antibody; alteration only in the GpH7-B3 H chain; position in EU numbering; also called He Ab) heavy 1: not shown heavy 2: not shown light: DIVMTQSPLSLPVTPGEPASISCQASESLVHSNRNTYLHWYLQKPGQSPQLLIYKVSNRFSGVPDRFSGSGSGTDFTLKISRVEAEDVGVYYCSQNTHVPPTFGQGTKVEIERTVAAPSVFIFPPSDEQLKSGTASVVCLLNNFYPREAKVQWKVDNALQSGNSQESVTEQDSKDSTYSLSSTLTLSKADYEKHKVYACEVTHQGLSSPVTKSFNRGEC	88.8 % of control (control = 100)	70.5 % of control (control = 100)	1.26	
GpH7-A5/GpH7-B3 variant Y300_04F/GpL16-k0 (antibody, human IgG1, kappa, heterodimerized; also called He Ab) heavy 1: not shown heavy 2: not shown light: DIVMTQSPLSLPVTPGEPASISCQASESLVHSNRNTYLHWYLQKPGQSPQLLIYKVSNRFSGVPDRFSGSGSGTDFTLKISRVEAEDVGVYYCSQNTHVPPTFGQGTKVEIERTVAAPSVFIFPPSDEQLKSGTASVVCLLNNFYPREAKVQWKVDNALQSGNSQESVTEQDSKDSTYSLSSTLTLSKADYEKHKVYACEVTHQGLSSPVTKSFNRGEC				108 % of control
GpH7-A5/GpH7-B3 variant A330_03V/GpL16-k0 (antibody, human IgG1, kappa, Heterodimerized anti-glypican-3 IgG1 antibody; alteration only in the GpH7-B3 H chain; position in EU numbering; also called He Ab) heavy 1: not shown heavy 2: not shown light: DIVMTQSPLSLPVTPGEPASISCQASESLVHSNRNTYLHWYLQKPGQSPQLLIYKVSNRFSGVPDRFSGSGSGTDFTLKISRVEAEDVGVYYCSQNTHVPPTFGQGTKVEIERTVAAPSVFIFPPSDEQLKSGTASVVCLLNNFYPREAKVQWKVDNALQSGNSQESVTEQDSKDSTYSLSSTLTLSKADYEKHKVYACEVTHQGLSSPVTKSFNRGEC	74.9 % of control (control = 100)	52.4 % of control (control = 100)	1.43	
GpH7-A5/GpH7-B3 variant A330_18N/GpL16-k0 (antibody, human IgG1, kappa, Heterodimerized anti-glypican-3 IgG1 antibody; alteration only in the GpH7-B3 H chain; position in EU numbering; also called He Ab) heavy 1: not shown heavy 2: not shown light: DIVMTQSPLSLPVTPGEPASISCQASESLVHSNRNTYLHWYLQKPGQSPQLLIYKVSNRFSGVPDRFSGSGSGTDFTLKISRVEAEDVGVYYCSQNTHVPPTFGQGTKVEIERTVAAPSVFIFPPSDEQLKSGTASVVCLLNNFYPREAKVQWKVDNALQSGNSQESVTEQDSKDSTYSLSSTLTLSKADYEKHKVYACEVTHQGLSSPVTKSFNRGEC	81.1 % of control (control = 100)	63.7 % of control (control = 100)	1.27	

Further lines, results first:

He/Con_2aR (IIaR binding relative to GpH7-A5/GpH7-B3/GpL16-k0) (FcγRIIa R [1])	He/Con_2b (IIb binding relative to GpH7-A5/GpH7-B3/GpL16-k0) (FcγRIIb)	He_2aR/2b (IIaR/IIb) (FcγRIIa R [2])	He/Con_2aR [3]	Binder
60.8 % of control (control = 100)	41.3 % of control (control = 100)	1.47		GpH7-A5/GpH7-B3 variant A330_13S/GpL16-k0 (antibody, human IgG1, kappa, Heterodimerized anti-glypican-3 IgG1 antibody; alteration only in the GpH7-B3 H chain; position in EU numbering; also called He Ab) heavy 1: not shown heavy 2: not shown light: DIVMTQSPLSLPVTPGEPASISCQASESLVHSNRNTYLHWYLQKPGQSPQLLIYKVSNRFSGVPDRFSGSGSGTDFTLKISRVEAEDVGVYYCSQNTHVPPTFGQGTKVEIERTVAAPSVFIFPPSDEQLKSGTASVVCLLNNFYPREAKVQWKVDNALQSGNSQESVTEQDSKDSTYSLSSTLTLSKADYEKHKVYACEVTHQGLSSPVTKSFNRGEC
86.6 % of control (control = 100)	70.1 % of control (control = 100)	1.23		GpH7-A5/GpH7-B3 variant A330_10E/GpL16-k0 (antibody, human IgG1, kappa, Heterodimerized anti-glypican-3 IgG1 antibody; alteration only in the GpH7-B3 H chain; position in EU numbering; also called He Ab) heavy 1: not shown heavy 2: not shown light: DIVMTQSPLSLPVTPGEPASISCQASESLVHSNRNTYLHWYLQKPGQSPQLLIYKVSNRFSGVPDRFSGSGSGTDFTLKISRVEAEDVGVYYCSQNTHVPPTFGQGTKVEIERTVAAPSVFIFPPSDEQLKSGTASVVCLLNNFYPREAKVQWKVDNALQSGNSQESVTEQDSKDSTYSLSSTLTLSKADYEKHKVYACEVTHQGLSSPVTKSFNRGEC
95.5 % of control (control = 100)	77.9 % of control (control = 100)	1.23		GpH7-A5/GpH7-B3 variant A330_14T/GpL16-k0 (antibody, human IgG1, kappa, Heterodimerized anti-glypican-3 IgG1 antibody; alteration only in the GpH7-B3 H chain; position in EU numbering; also called He Ab) heavy 1: not shown heavy 2: not shown light: DIVMTQSPLSLPVTPGEPASISCQASESLVHSNRNTYLHWYLQKPGQSPQLLIYKVSNRFSGVPDRFSGSGSGTDFTLKISRVEAEDVGVYYCSQNTHVPPTFGQGTKVEIERTVAAPSVFIFPPSDEQLKSGTASVVCLLNNFYPREAKVQWKVDNALQSGNSQESVTEQDSKDSTYSLSSTLTLSKADYEKHKVYACEVTHQGLSSPVTKSFNRGEC
			110 % of control	GpH7-A5/GpH7-B3 variant Y296_20W/GpL16-k0 (antibody, human IgG1, kappa, heterodimerized; also called He Ab) heavy 1: not shown heavy 2: not shown light: DIVMTQSPLSLPVTPGEPASISCQASESLVHSNRNTYLHWYLQKPGQSPQLLIYKVSNRFSGVPDRFSGSGSGTDFTLKISRVEAEDVGVYYCSQNTHVPPTFGQGTKVEIERTVAAPSVFIFPPSDEQLKSGTASVVCLLNNFYPREAKVQWKVDNALQSGNSQESVTEQDSKDSTYSLSSTLTLSKADYEKHKVYACEVTHQGLSSPVTKSFNRGEC
